This data set is described as follows: yeast display, Sf9 membrane polyspecificity reagent, FACS + sequencing; frameworks hold sequencing errors. In short, it runs like this: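 Galactose induction of a Saccharomyces cerevisiae BJ5465 synthetic nanobody display library ran 36–48 hours. The cells were then stained for 1 hour at 4 °C with 10% biotinylated, detergent-solubilized Sf9 membrane reagent, pulled down on streptavidin microbeads and FACS-sorted into low and high (top ~1%) gates on expression and reagent-binding fluorescence. Labels for polyreactivity follow the gate of origin.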
For the sequence “QVQLVESGGGLVQAGGSLRLSCAASGSTFDSYAMGWYRPAPGKERELVAAITDSGSSTYYADSVKGRFTISRDNAKNTVYLQMNSLKPEDTAVYYCATYDYHGWSYYRYDYWGQGTQVTVSS”, the “polyreactivity (PSR sort gate)” value was “low polyreactivity”.

In the case of “QVQLVESGGGLVQAGGSLRLSCAASGSTFDSYAMGWYRQAPGKEREFVAAITWSGGRTYYADCVKGRFTISRDNAKNTVYLQMNSLKPEDTAVYDCSATDPWGWDYYYWGQGSQVTVSS”, the “polyreactivity (PSR sort gate)” value was “low polyreactivity”.

As to “QVQLVESGGGLVQAGGSLRLSCAASGSTFDTNAMGWYRQAPGKERELVASISSAGSTNYADSVKGRFTISRDNAKNTVYLQMNSLKPEDTAVYYCAKYYGQFYPPTLGYWGQGTQVTVSS”, the “polyreactivity (PSR sort gate)” value is reported as “low polyreactivity”.

Regarding “QVQLVESGGGLVQAGGSLRLSCAASGSTFDTYAMGWSRPAPGKERELVAAITSGSSTNYADSVKGRFTISRDNAKNTVYLQMNSLKPEDTAVYYCAALGYNVSSRGYYYWGQGTQVTVSS”, the “polyreactivity (PSR sort gate)” value is “low polyreactivity”.

Consider “QVQLVESGGGLVQAGGSLRLSCAASGSTFDTYAMGWYRQAPGKERELVAAISVSGTSTSYADSVKGRFTISRDNAKNTVYLQMNSLKPEDTAVYYCNATDFSRNPGYARPEYDYWGQGTQVTVSS”, for which the “polyreactivity (PSR sort gate)” value is given as “low polyreactivity”.

Take “QVQLVESGGGLVQAGGSLRLSCAASGSTFDTYAMGWYRQAPGKERELVATITNSVGNTYYADSVKGRFTISRDNAKNTVYLQMNSLKPEDTAVYYCAAETVYILAPGYYDYDYWGQGTQVTVSS”: the “polyreactivity (PSR sort gate)” value is “low polyreactivity”.

With “QVQLVESGGGLVQAGGSLRLSCAASGSTFDTYAMGWYRQAPGKERELVAVITTGGSTYYADSVKGRFTISRDNAKNTVNLQMNSLKPEDTAVYYCNAGYSVSRRRKYGYWGQGTQVTVSS”, the “polyreactivity (PSR sort gate)” value is given as “high polyreactivity”.

Regarding “QVQLVESGGGLVQAGGSLRLSCAASGSTFDVNAMGWYRPAPGKERELVAAISFSGGSTYYADSVKGRFTISRDNAKNTVYLQMNSLKPEDTAVYYCAAEEWRSYYEEYDYWGQGTQVTVSS”, the “polyreactivity (PSR sort gate)” value is “low polyreactivity”.

As for “QVQLVESGGGLVQAGGSLRLSCAASGSTFDVNTMGWYRQAPGKERELVAAISSSGGDTYYADSVKGRFTISRDNAKNTVYLQMNSLKPDDTAVYYCAARLGFYTYGYTSWYTVYYWGQGTQVTVSS”, the “polyreactivity (PSR sort gate)” value is recorded as “low polyreactivity”.

Take “QVQLVESGGGLVQAGGSLRLSCAASGSTFDVYAMGWYRQAPGKERELVAAIRSSGGSTFYADSVKGRFTISRDNAKNIVYLQMISLNPEDTAVYYCAARSFVVSGYNKYYEYGYWGQGTHVTVSS”: the “polyreactivity (PSR sort gate)” value is “low polyreactivity”.

As for “QVQLVESGGGLVQAGGSLRLSCAASGSTFDVYAMGWYRQAPGKERELVAAISRSGGSTYYADSVKGRFTISRDNAKNTVYLQMNSLKPEDTAVYYCNARLARWGSYEYNYWGQGTQVTVSS”, the “polyreactivity (PSR sort gate)” value was “low polyreactivity”.

Consider “QVQLVESGGGLVQAGGSLRLSCAASGSTFDVYAMGWYRQAPGKERELVAGISSRGGRTYYADSVKGRFTISRDNAKNTVYLQMNSLKPEDTAVYYCAARYKGNPDRYGYWGQGTQVTVSS”, for which the “polyreactivity (PSR sort gate)” value is “high polyreactivity”.

With “QVQLVESGGGLVQAGGSLRLSCAASGSTFDVYAMGWYRQAPGKERELVASISITDGSTYYADSVKGRFTISRDNAKNTVYLPMNSLKPEDTAVYYCNAQYGGSYVEYDYWGQGTQVTVSA”, the “polyreactivity (PSR sort gate)” value is “low polyreactivity”.

Turning to “QVQLVESGGGLVQAGGSLRLSCAASGSTFDVYTMGWYRQAPGKERELVATISGDDGSTYYADSEKGRFTISRDNAKNTVSLQMNSLKPEDTAVYYCAADYGGFPNYYSTGDYWGQGTQVTVSS”, the “polyreactivity (PSR sort gate)” value is on record as “low polyreactivity”.

“QVQLVESGGGLVQAGGSLRLSCAASGSTFDYNAMGWYRQAPGKERELVAAITTVGITYYADSVKGRFTISRDNAKNTVYLQMNSLKPEDTAVYYCAARCVRYGGRYDYWGQGTQVTVSS”: the “polyreactivity (PSR sort gate)” value is given as “high polyreactivity”.

Take “QVQLVESGGGLVQAGGSLRLSCAASGSTFDYYAMGWYRQAPGKERELVATISWSGTDTYYADSVKGRFTISRDNAKNTVYLQMNSLKPEDTAVYYCAADTVYWRGWSGYYYWGQGTQVTVSS”: the “polyreactivity (PSR sort gate)” value is on record as “low polyreactivity”.

Regarding “QVQLVESGGGLVQAGGSLRLSCAASGSTFDYYAMGWYRQAPGKVRELGAAITTSGGSTYYADSVKGRFTISRDNAKNTVYLQINCLKPEDTAVYYCAAESYWYGTSPYYYLYEYDYWGQGTQVTVSS”, the “polyreactivity (PSR sort gate)” value was “high polyreactivity”.

“QVQLVESGGGLVQAGGSLRLSCAASGSTFDYYDMGWYRPAPGKERELVAAISSGGDSTYYADSVKGRFTISRDNAKNTVYLQFNSLKPEDSAVYYCAAPDESYSVWRLDGLDYWGQGTQVTVSS”: the “polyreactivity (PSR sort gate)” value was “high polyreactivity”.

With “QVQLVESGGGLVQAGGSLRLSCAASGSTFDYYTMGWYRPAPGKERELVAAISSSGGSTYYADSVKGRFTISRDYAKNTVYLQMNSLKPEDTAVYYCAADPSPYGDEYDYWGQGTQVTVSS”, the “polyreactivity (PSR sort gate)” value was “low polyreactivity”.

For “QVQLVESGGGLVQAGGSLRLSCAASGSTFDYYVMGWYRQAPGKERELVASISSGGSTYYADSVKGRFTISRDNAKNTVYLQMNSLKPEDTAVYYCAARYYGRVGGYSIGYNYWGQGTQVTVSS”, the “polyreactivity (PSR sort gate)” value is given as “high polyreactivity”.

“QVQLVESGGGLVQAGGSLRLSCAASGSTFEANAMGWNRPAPWKERELVAVITWTGGSTYYADSVKGRFTISRDNAKNTVYLQMNSLKPEDTAVYYCAADGVVPGRFFWPAHEYDYWGQGTQVTVSS”: the “polyreactivity (PSR sort gate)” value is listed as “low polyreactivity”.

For the sequence “QVQLVESGGGLVQAGGSLRLSCAASGSTFEANAMGWYRQAPGNERELVAVITWTGGSTYYADSVKGRFTISRDNAKNTVYLQMNSLKPEDTAVYYCAADGVVPGRFFWPAHEYDYWGQGTQVTVSS”, the “polyreactivity (PSR sort gate)” value was “low polyreactivity”.

As for “QVQLVESGGGLVQAGGSLRLSCAASGSTFEDNTMGWYRQAPGKEREFVADISNIGGDTTYADSVKGRFTISRDNAKNTVYLQMNSLKPEDTAVYYCAAVKGHSQVLSYGYWGQGTQVTVSS”, the “polyreactivity (PSR sort gate)” value is “low polyreactivity”.

For “QVQLVESGGGLVQAGGSLRLSCAASGSTFEHYAMGWYRQAPGKERELVAAISYTGGNTYYADSVKGRFTISRDNAKNTVYLQMNSLKPEDTAVYYCAAAPLYYHRRGYYYWGQGTQVTVSS”, the “polyreactivity (PSR sort gate)” value is listed as “high polyreactivity”.

Turning to “QVQLVESGGGLVQAGGSLRLSCAASGSTFEHYTMGWYRQAPGKERELVAAINGRGGSTYYADSVKGRFTISRDNAKNTVYLQMNSLKPEDTAVYYCAAVYGFRDYDYWGQGTQVTVSS”, the “polyreactivity (PSR sort gate)” value is “high polyreactivity”.

Turning to “QVQLVESGGGLVQAGGSLRLSCAASGSTFELNAMGWYRQAPGKERELVAVITISGGNTYYADSVKGRFTISRDNAKNTVDLPMNSLKPDDTAVYYCAARPITTSITRYGFWGQGTQVTVSS”, the “polyreactivity (PSR sort gate)” value is “high polyreactivity”.

Regarding “QVQLVESGGGLVQAGGSLRLSCAASGSTFENYVMGWDRQAPGKERELVAAISRGGGSTHYADSVKGRFTISRDNANNTVYLQMNSLKPEDTAVYYCAARYQPYVGSRSISTGIYYYWGQGTQVTVSS”, the “polyreactivity (PSR sort gate)” value is “low polyreactivity”.

“QVQLVESGGGLVQAGGSLRLSCAASGSTFETNAMGLYRQATRKERELVAAISYNGGSTYADSVKGRFTISRDNAKNTVYLHMNSLKPEDSAVYYCAAVRSPRGLGGYWGQGTQVTVAS”: the “polyreactivity (PSR sort gate)” value was “low polyreactivity”.

For the sequence “QVQLVESGGGLVQAGGSLRLSCAASGSTFETYAMGWYRQAPGKERELVAVITSDGSTNYADSVKGRFTISRDNAKNTVYLQMNSLKPEDTAGYYCNADYGFYVPAYPIYWIYEYWGQGTQVTVSS”, the “polyreactivity (PSR sort gate)” value was “low polyreactivity”.

Take “QVQLVESGGGLVQAGGSLRLSCAASGSTFEYNAMGGYRQAPGKERELVASSTNYADSVKGRFTISRDNAKKTVYLQMTSLKPEDTAVYYCAREQGVNRNHDYWGQGTQVTVSS”: the “polyreactivity (PSR sort gate)” value is on record as “low polyreactivity”.

On to “QVQLVESGGGLVQAGGSLRLSCAASGSTFEYNAMGGYRQAPGKERELVASSTNYADSVKGRFTISRDNAKNTVYLQMNSLKPEDTAVYYCAREQGVNRNHDYWGQGTQVTVSS”, for which the “polyreactivity (PSR sort gate)” value is on record as “low polyreactivity”.

Turning to “QVQLVESGGGLVQAGGSLRLSCAASGSTFEYYAMGWYRQAPGKERELVAAISSGPSTTYADSVKGRFTISRDNAKNTVYLQMNSLKPEDTAVYYCAARTYPSYYVTFEYWGQGTQVTVSS”, the “polyreactivity (PSR sort gate)” value was “low polyreactivity”.

On to “QVQLVESGGGLVQAGGSLRLSCAASGSTFEYYAMGWYRQAPGKERELVAAITGSGDNTYYADSVKGRFTISRDYAKNTVYLQMNSLKPEDTAVYYCAATLRVKGQYGRMYYWGQGTQVTVSS”, for which the “polyreactivity (PSR sort gate)” value is “high polyreactivity”.

Regarding “QVQLVESGGGLVQAGGSLRLSCAASGSTFEYYAMGWYRQAPGKERELVAAITRRGGSTYYADSVKGRFTISRDNAKNTVYLQMNSLKPEDTAVYYCAAVPTQKSPRTHDFWGQGTQVTVSS”, the “polyreactivity (PSR sort gate)” value was “low polyreactivity”.

Consider “QVQLVESGGGLVQAGGSLRLSCAASGSTFFANAMGWYRQAPGKERELVAAITIGNTNYADSVKGRFTISRDNAKNTVYLQMNSLKPEDTAVYYCNASHVSHYRARDYWGQGTQVTVSS”, for which the “polyreactivity (PSR sort gate)” value is given as “low polyreactivity”.

As to “QVQLVESGGGLVQAGGSLRLSCAASGSTFFEYTMGWYRQAPGKEREFVADIRGRDGSTSYADSVKGRFTISRDNAKNTVYLQMNSLKPEDTAVYYCAVGVYPSYRGPTFSTRRDYWGQGTQVTVSS”, the “polyreactivity (PSR sort gate)” value is “low polyreactivity”.

Consider “QVQLVESGGGLVQAGGSLRLSCAASGSTFFFYAMGWYRQAPGKERELVAAISRSGVSTYYADSVKGRFTISRDNAKNNVYLQMNSLKPEDTAVYYCAKGGSRDRYGYWGQGTQVTVSS”, for which the “polyreactivity (PSR sort gate)” value is listed as “high polyreactivity”.

As for “QVQLVESGGGLVQAGGSLRLSCAASGSTFFGNTMGRYRQAPGKERELVAAISRRGGSTYYADSVKGRFTISRDNAKNTVYLQMNSLKPEDTAVYYCAKYYHSGGYTPGKYDYWGQGTQVTVSS”, the “polyreactivity (PSR sort gate)” value was “high polyreactivity”.

Consider “QVQLVESGGGLVQAGGSLRLSCAASGSTFFGYAMGWYRQAPGKERELVAAIRYNGGHTYYADSVKGRFTISRDYAKNTVYLQMNRLKPEDTAVYYCAVDVVTSYYELTGSFNYWGQGTQVTVSS”, for which the “polyreactivity (PSR sort gate)” value is on record as “low polyreactivity”.

As to “QVQLVESGGGLVQAGGSLRLSCAASGSTFFGYAMGWYRQAPGKERELVAAITYTGDTTYYADSVKGRFTISRDNAKNTVYLQMNSLNPEDTAVYYCAAGGYPVYTGRGMDYWGQGTQVTVSS”, the “polyreactivity (PSR sort gate)” value is recorded as “low polyreactivity”.

(Values after the nanobody polyreactivity screen of Harvey et al. (2022).)
